Here are results for 1 molecule from publication PMC8213676, “OsJAZ11 regulates phosphate starvation responses in rice”.

This series addresses OsPHR2-6XHIS (Oryza sativa, UniProt Q6Z156 1-426). As to the kind of experiment: EMSA; 0.7 ug protein, 50 ng probe; 15 mM HEPES pH 8.0, 30 mM KCl, 1 mM MgCl2, 0.2 mM EDTA, 0.02 mM DTT, 0.6% glycerol, 1 ug poly(dI-dC) in 20 ul, 20 °C 30 min (1 h with 15 mM NaH2PO4 for inhibition assay); gel 0.5X TBE at 4 °C. The settings on record: protein: recombinant; tags: 6xHis (pET28a); chain copies: 2; label: DIG 3' end; blunt. In general terms: A gel shift assay detects complexes by their altered migration in electrophoresis.

OsPHR2-6XHIS, sequence (Q6Z156 whole entry): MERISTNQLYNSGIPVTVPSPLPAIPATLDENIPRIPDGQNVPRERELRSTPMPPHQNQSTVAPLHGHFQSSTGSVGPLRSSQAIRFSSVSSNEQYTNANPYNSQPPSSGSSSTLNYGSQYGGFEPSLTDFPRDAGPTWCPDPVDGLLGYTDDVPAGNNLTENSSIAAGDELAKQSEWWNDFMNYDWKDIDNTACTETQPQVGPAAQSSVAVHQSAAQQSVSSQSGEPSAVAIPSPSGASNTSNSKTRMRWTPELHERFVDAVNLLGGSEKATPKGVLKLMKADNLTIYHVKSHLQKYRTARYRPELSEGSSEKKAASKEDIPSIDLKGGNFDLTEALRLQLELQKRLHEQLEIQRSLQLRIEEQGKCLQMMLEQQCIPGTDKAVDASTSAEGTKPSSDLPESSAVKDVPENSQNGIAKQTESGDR

B1: OsSPX2 promoter P1BS probe (dsDNA)
DNA 1: TATCCCCGTCACGAATATTCCTCTTCCTCC
DNA 2: GGAGGAAGAGGAATATTCGTGACGGGGATA
As for B1, the binding result is reported as “binds”.
